Legend:
[1] = target: HIV-1 gp120 JR-FL (HIV-1 (JR-FL)); test: ELISA, crude Fab on gp120JR-FL; apparent affinity wt/mutant x100%
[2] = test system: Mab 2G12 binding to gp120JR-FL; test: Competition ELISA: inhibition of 2G12 binding to gp120JR-FL by carbohydrates; set-up: species or system HIV-1; conditions: 2G12 1 μg/ml
Procedure: Competition enzyme-linked immunosorbent assays (ELISAs) were performed to determine the relative inhibition constants of different carbohydrates on 2G12. GP120JR-FL was first captured onto microtiter plate wells (flat bottom, Costar type 3690; Corning Inc.). Subsequently serial dilutions of Man9GlcNAc2, Manα1-2Man, mannose, and other mono- and disaccharides were added to the wells in the presence of 2G12 (1 μg/ml). Subsequent blocking, washing, and detection steps were performed as described in (13).

Compound | % Affinity Relative to Wild Type [1] | further results
Fab 2G12 mutant H T52aA | 190% | 
Fab 2G12 mutant L S28A | 0.1% | 
Fab 2G12 mutant H G96A | 20% | 
Fab 2G12 mutant H K95A | 170% | 
Fab 2G12 mutant H P113A | 0.1% | 
Fab 2G12 mutant L G93A | 120% | 
Fab 2G12 mutant H R39Q | 170% | 
Fab 2G12 mutant H I19A | 0.5% | 
Fab 2G12 mutant H E75A | 1.1% | 
Fab 2G12 mutant H Y56A | 2% | 
Fab 2G12 mutant H D100dA | 120% | 
Fab 2G12 mutant H H32A | 0.4% | 
Fab 2G12 mutant L W32A | 50% | 
Fab 2G12 mutant H L100A | 0.1% | 
O=C(CO)[C@@H](O)[C@H](O)[C@H](O)CO [Fructose] |  | inhibition of 2G12 binding to gp120 (in words) [2]: better inhibitor than mannose
CC(=O)N[C@H]1[C@H](O[C@H]2[C@H](O)[C@@H](NC(C)=O)C(O)O[C@@H]2CO)O[C@H](CO)[C@@H](O[C@@H]2O[C@H](CO[C@H]3O[C@H](CO[C@H]4O[C@H](CO)[C@@H](O)[C@H](O)[C@@H]4O[C@H]4O[C@H](CO)[C@@H](O)[C@H](O)[C@@H]4O)[C@@H](O)[C@H](O[C@H]4O[C@H](CO)[C@@H](O)[C@H](O)[C@@H]4O[C@H]4O[C@H](CO)[C@@H](O)[C@H](O)[C@@H]4O)[C@@H]3O)[C@@H](O)[C@H](O[C@H]3O[C@H](CO)[C@@H](O)[C@H](O)[C@@H]3O[C@H]3O[C@H](CO)[C@@H](O)[C@H](O)[C@@H]3O[C@H]3O[C@H](CO)[C@@H](O)[C@H](O)[C@@H]3O)[C@@H]2O)[C@@H]1O (stereo partly drawn) [Man9GlcNAc2] |  | inhibition of Mab 2G12 binding to gp120JR-FL compared to the disaccharide Manα1-2Man ([2]; relative to Manα1-2Man): over 50 fold; inhibition of Mab 2G12 binding to gp120JR-FL compared to mannose (relative IC50) ([2]; relative to mannose): over 200 fold
Fab 2G12 mutant H P113S | 0.1% | 
Fab 2G12 mutant H N100cA | 0.1% | 
Fab 2G12 mutant H R83A | 59% | 

Second part, led by results:

% Affinity Relative to Wild Type [1] | Compound | further results
130% | Fab 2G12 mutant H R39A | 
52% | Fab 2G12 mutant H D100bA | 
51% | Fab 2G12 mutant H K82bA | 
0.1% | Fab 2G12 mutant H V84A | 
0.1% | Fab 2G12 mutant H S100aA | 
0.1% | Fab 2G12 mutant H T55A | 
130% | Fab 2G12 mutant H L74A | 
0.1% | Fab 2G12 mutant H R57A | 
2% | Fab 2G12 mutant H T33A | 
103% | Fab 2G12 mutant H E76A | 
0.1% | Fab 2G12 mutant H S54A | 
0.1% | Fab 2G12 mutant H Y79A | 
0.1% | Fab 2G12 mutant H F77A | 
